From the supplement of paper PMC7877785 come the findings set out here.

This series can be described thus: self-splicing fitness, log relative to wild type (ln ratio); higher = more splicing; Tetrahymena group I intron in knt gene, E. coli kanamycin selection, DiMSum; sequences stand for … in CUCUCU…GGAGGGAAAAGUUAUCAGGCAUGCACCUGGUAGCUAGUCUUUAAACCAAUAGAUUGCAUCGGUUUAAAAGGCAAGACCGUCAAAUUGCGGGAAAGGGGUCAACAGCCGUUCAGUACCAAGUCUCAGGGGAAACUUUGAGAUGGCCUUGCAAAGGGUAUGGUAAUAAGCUGACGGACAUGGUCCUAACCACGCAGCCAAGUCCUAAGUCAACAGAUCUUCUGUUGAUAUGGAUGCAGUUCACAGACUAAAUGUCGGUCGGGGAAGAUGUAUUCUUCUCAUAAGAUAUAGUCGGACCUCUCCUUAAUGGGAGCUAGCGGAUGAAGUGAUGCAACACUGGAGCCGCUGGGAACUAAUUUGUAUGCGAAAGUAUAUUGAUUAGUUUUGGAGUACUCGUGGUCG
Put shortly: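 Fitness was computed with DiMSum as the error-weighted combination of replicate fold changes, kanamycin versus none, each normalised to wild type. The library randomised all eight intron nucleotides of the P1ex region, with the intron placed in the knt kanamycin-resistance gene on pET-22b(+) in E. coli BL21(DE3). Six replicate transformations were grown overnight at 37°C or 30°C on LB agar with or without 25 μg/mL kanamycin, plus 100 μg/mL carbenicillin, 50 μM IPTG and 0.2% rhamnose. Pooled colonies were amplicon-sequenced on an Illumina HiSeq 2500.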

± gives the uncertainty stated by the source.

As to CCGUAGCAAUAUUACGUAAG, the “self-splicing fitness (ln)” value is 0.191 ± 0.047 (30 °C) and 0.106 ± 0.062 (37 °C).
The matching figures for UAACAGCAAUAUUACGGCUA: 0.184 ± 0.052 and -0.0982 ± 0.067.
The matching figures for GUGGAGCAAUAUUACGGAGG: -2.41 ± 0.28 and -0.95 ± 0.28.
The matching figures for AGGAAGCAAUAUUACGCUUA: -2.41 ± 0.2 and -0.908 ± 0.17.
With GUCCAGCAAUAUUACGCUCC, the “self-splicing fitness (ln)” value runs as follows: (30 °C) -0.889 ± 0.17; (37 °C) -0.563 ± 0.2.
The matching figures for GGCUAGCAAUAUUACGACCU: -0.605 ± 0.081 and 0.0864 ± 0.09.
The matching figures for GCUUAGCAAUAUUACGUUCC: -0.313 ± 0.19 and -0.542 ± 0.23.
The matching figures for UCGAAGCAAUAUUACGGUUG: -1.65 ± 0.097 and -0.93 ± 0.14.
Turning to GACGAGCAAUAUUACGUAUU, the “self-splicing fitness (ln)” value is, setting by setting: (30 °C) -3.7 ± 0.21; (37 °C) -2.44 ± 0.18.
On the same counts, the results for CCUCAGCAAUAUUACGGAAA are -3.7 ± 0.23 and -1.63 ± 0.17.
On the same counts, the results for UGUAAGCAAUAUUACGUCGG are -1.67 ± 0.13 and -1.95 ± 0.14.
Turning to ACGUAGCAAUAUUACGAGAG, the “self-splicing fitness (ln)” value by setting is: (30 °C) -2.93 ± 0.14; (37 °C) -2.97 ± 0.23.
In the case of CGGCAGCAAUAUUACGGAUC, the “self-splicing fitness (ln)” value by setting is: (30 °C) -2.88 ± 0.27; (37 °C) -2.04 ± 0.2.
With UUAGAGCAAUAUUACGCUUG, the “self-splicing fitness (ln)” value is -0.891 ± 0.11 (30 °C) and 0.00726 ± 0.16 (37 °C).
Take UCGGAGCAAUAUUACGAAAU: the “self-splicing fitness (ln)” value (30 °C) is -3.14 ± 0.49.
Regarding UUAAAGCAAUAUUACGUGCA, the “self-splicing fitness (ln)” value is, setting by setting: (30 °C) -0.0172 ± 0.1; (37 °C) 0.542 ± 0.13.
The matching figures for AGUCAGCAAUAUUACGGUAG: -3.46 ± 0.15 and -2.76 ± 0.21.
In the case of UAGCAGCAAUAUUACGUCGC, the “self-splicing fitness (ln)” value runs as follows: (30 °C) -4.47 ± 0.24; (37 °C) -2.73 ± 0.22.
With UUAGAGCAAUAUUACGUGCG, the “self-splicing fitness (ln)” value (30 °C) is -1.28 ± 0.1 and the “self-splicing fitness (ln)” value (37 °C) was -0.87 ± 0.14.
The matching figures for AACCAGCAAUAUUACGCGUC: -2.08 ± 0.089 and -1.12 ± 0.095.
The matching figures for GGUAAGCAAUAUUACGCGCC: -2.99 ± 0.33 and -1.48 ± 0.29.
Turning to CCGCAGCAAUAUUACGAGAC, the “self-splicing fitness (ln)” value (30 °C) is -2.24 ± 0.22.
In the case of GAGUAGCAAUAUUACGCAGA, the “self-splicing fitness (ln)” value is, setting by setting: (30 °C) -3 ± 0.26; (37 °C) -2.41 ± 0.31.
On the same counts, the results for CCAUAGCAAUAUUACGAGCA are -3.11 ± 0.2 and -2.11 ± 0.23.
On the same counts, the results for ACAGAGCAAUAUUACGAUUA are -3.25 ± 0.23 and -2.38 ± 0.26.
As to GGUAAGCAAUAUUACGUAGG, the “self-splicing fitness (ln)” value runs as follows: (30 °C) -2.78 ± 0.19; (37 °C) -3.5 ± 0.28.
The matching figures for AUUGAGCAAUAUUACGACGU: -0.46 ± 0.12 and -0.115 ± 0.13.
On the same counts, the results for CAACAGCAAUAUUACGUCUU are -1.48 ± 0.061 and -0.62 ± 0.07.
The matching figures for GCUUAGCAAUAUUACGUUAG: -1.56 ± 0.13 and -1.1 ± 0.15.
In the case of CAAGAGCAAUAUUACGCCUA, the “self-splicing fitness (ln)” value (37 °C) was -1.91 ± 0.43.
On to UGGGAGCAAUAUUACGCACA, for which the “self-splicing fitness (ln)” value was -0.967 ± 0.35 (30 °C) and 0.399 ± 0.35 (37 °C).
Take AACAAGCAAUAUUACGGUGG: the “self-splicing fitness (ln)” value reads like this: (30 °C) -1.84 ± 0.06; (37 °C) -0.813 ± 0.073.
Turning to CGUUAGCAAUAUUACGCACG, under “30 °C”, the “self-splicing fitness (ln)” value was -1.99 ± 0.31.
On to CUUAAGCAAUAUUACGGUUA, for which the “self-splicing fitness (ln)” value (37 °C) is -2.16 ± 0.29.
Take AACAAGCAAUAUUACGAAGA: the “self-splicing fitness (ln)” value reads like this: (30 °C) -2.78 ± 0.12; (37 °C) -2.12 ± 0.14.
As for GUCCAGCAAUAUUACGGUGA, the “self-splicing fitness (ln)” value is, setting by setting: (30 °C) -0.608 ± 0.051; (37 °C) -0.131 ± 0.071.
The matching figures for AAACAGCAAUAUUACGUCUG: -2.28 ± 0.084 and -1.17 ± 0.095.
On to GCUCAGCAAUAUUACGAAGU, for which the “self-splicing fitness (ln)” value (30 °C) is -1.63 ± 0.16 and the “self-splicing fitness (ln)” value (37 °C) was -0.416 ± 0.15.
The matching figures for UCCCAGCAAUAUUACGGCUA: -1.31 ± 0.12 and -1.19 ± 0.12.
As for CUGGAGCAAUAUUACGUUGU, the “self-splicing fitness (ln)” value is -2.64 ± 0.29 (30 °C) and -3.72 ± 0.33 (37 °C).
The matching figures for CACUAGCAAUAUUACGUAUG: -1.82 ± 0.061 and -0.818 ± 0.068.
The matching figures for UACCAGCAAUAUUACGCAAC: -2.85 ± 0.3 and -2.19 ± 0.27.
The matching figures for AUAGAGCAAUAUUACGGACU: -1.15 ± 0.13 and -1.65 ± 0.23.
As for UUGAAGCAAUAUUACGGUCU, the “self-splicing fitness (ln)” value by setting is: (30 °C) -0.0588 ± 0.058; (37 °C) -0.0885 ± 0.075.
The matching figures for GCAUAGCAAUAUUACGAGCG: -1.3 ± 0.077 and -1.05 ± 0.085.
Regarding ACCAAGCAAUAUUACGCCCU, the “self-splicing fitness (ln)” value reads like this: (30 °C) -0.139 ± 0.091; (37 °C) 0.663 ± 0.14.
On to AAUAAGCAAUAUUACGAGUA, for which the “self-splicing fitness (ln)” value runs as follows: (30 °C) -1.67 ± 0.19; (37 °C) -0.925 ± 0.16.
As to GAAUAGCAAUAUUACGCUCA, the “self-splicing fitness (ln)” value reads like this: (30 °C) -0.0838 ± 0.16; (37 °C) 0.784 ± 0.18.
For the sequence ACUUAGCAAUAUUACGAGUU, the “self-splicing fitness (ln)” value is, setting by setting: (30 °C) -2.42 ± 0.12; (37 °C) -0.552 ± 0.14.
Turning to CUAAAGCAAUAUUACGCCGA, the “self-splicing fitness (ln)” value reads like this: (30 °C) -3.46 ± 0.24; (37 °C) -2.42 ± 0.25.
On the same counts, the results for AUGGAGCAAUAUUACGAGCA are -2.33 ± 0.46 and -1.17 ± 0.49.
Turning to CGAAAGCAAUAUUACGUCUC, the “self-splicing fitness (ln)” value (30 °C) is -2.71 ± 0.42 and the “self-splicing fitness (ln)” value (37 °C) was -1.15 ± 0.26.
Consider GUCGAGCAAUAUUACGAAAC, for which the “self-splicing fitness (ln)” value (30 °C) was -2.72 ± 0.41 and the “self-splicing fitness (ln)” value (37 °C) was -0.657 ± 0.37.
In the case of GGGCAGCAAUAUUACGAAUC, the “self-splicing fitness (ln)” value by setting is: (30 °C) -0.438 ± 0.15; (37 °C) -0.491 ± 0.21.
The matching figures for CACUAGCAAUAUUACGCCCC: -0.891 ± 0.38 and -0.252 ± 0.47.
On the same counts, the results for CCUGAGCAAUAUUACGUACA are -3.13 ± 0.33 and -0.722 ± 0.3.
Turning to CGAAAGCAAUAUUACGUCCA, the “self-splicing fitness (ln)” value runs as follows: (30 °C) -1.26 ± 0.12; (37 °C) -0.276 ± 0.13.
The matching figures for GCCGAGCAAUAUUACGGAGA: -1.55 ± 0.093 and -1.15 ± 0.13.
On the same counts, the results for UACCAGCAAUAUUACGACCG are -0.151 ± 0.067 and 0.099 ± 0.095.
On to GAUAAGCAAUAUUACGUUGU, for which the “self-splicing fitness (ln)” value is -2.12 ± 0.089 (30 °C) and -2.6 ± 0.11 (37 °C).
On to GCUGAGCAAUAUUACGGAUC, for which the “self-splicing fitness (ln)” value is -1.43 ± 0.087 (30 °C) and -0.415 ± 0.12 (37 °C).
The matching figures for CAUCAGCAAUAUUACGGGCG: -0.567 ± 0.069 and -0.377 ± 0.074.
The matching figures for AGUGAGCAAUAUUACGAGGG: -3.75 ± 0.24 and -2.13 ± 0.35.
As for CCUGAGCAAUAUUACGUUAA, the “self-splicing fitness (ln)” value is, setting by setting: (30 °C) -2.92 ± 0.24; (37 °C) -2.52 ± 0.26.
Regarding GGCCAGCAAUAUUACGUUAG, the “self-splicing fitness (ln)” value is -3.38 ± 0.26 (30 °C) and -2.82 ± 0.34 (37 °C).
For the sequence UAGUAGCAAUAUUACGACGA, the “self-splicing fitness (ln)” value reads like this: (30 °C) -0.284 ± 0.18; (37 °C) 0.242 ± 0.16.
Regarding UUUGAGCAAUAUUACGUAGC, for the setting “30 °C”, the “self-splicing fitness (ln)” value is -1.83 ± 0.32.
On to UAAAAGCAAUAUUACGAGGG, for which the “self-splicing fitness (ln)” value (30 °C) was -3.83 ± 0.33 and the “self-splicing fitness (ln)” value (37 °C) was -2.47 ± 0.3.
The matching figures for UACCAGCAAUAUUACGAACA: -0.482 ± 0.096 and -0.258 ± 0.12.
Turning to CAGGAGCAAUAUUACGGGAC, the “self-splicing fitness (ln)” value (30 °C) was -2.88 ± 0.25 and the “self-splicing fitness (ln)” value (37 °C) is -3.24 ± 0.29.
On the same counts, the results for CACUAGCAAUAUUACGCUGA are -2.58 ± 0.23 and -1.51 ± 0.19.
On the same counts, the results for UGAAAGCAAUAUUACGUCUA are -0.288 ± 0.12 and 0.146 ± 0.11.
On the same counts, the results for GUCUAGCAAUAUUACGGACA are -1.63 ± 0.18 and -0.275 ± 0.14.
As to AUUCAGCAAUAUUACGGGGG, the “self-splicing fitness (ln)” value reads like this: (30 °C) -2.77 ± 0.15; (37 °C) -2.14 ± 0.16.
On the same counts, the results for CCAAAGCAAUAUUACGUGUC are -3.56 ± 0.21 and -3.6 ± 0.29.
In the case of CAUUAGCAAUAUUACGAGAG, the “self-splicing fitness (ln)” value runs as follows: (30 °C) -2.5 ± 0.19; (37 °C) -2.63 ± 0.21.
The matching figures for AUUCAGCAAUAUUACGUCUU: -0.0261 ± 0.083 and 0.411 ± 0.089.
